Laboratory results taken from publication PMC4725365.

Experiments:
[1] = molecular target: A1-Titin (HLA-A*0101 with the Titin peptide ), biotinylated; test: SPR
[2] = molecular target: A1-MAGE-A3 (HLA-A*0101 with the MAGE-A3 peptide ), biotinylated; test: SPR
[3] = molecular target: A1-MAGE-A3 (HLA-A*0101 with the MAGE-A3 peptide …), biotinylated; test: SPR (single cycle kinetics); conditions: 25 °C; approximately 150 RUs of biotinylated pMHC immobilised onto a CM5 amine chip
[4] = molecular target: A1-Titin (HLA-A*0101 with the Titin peptide …), biotinylated; test: SPR (single cycle kinetics); conditions: 25 °C; approximately 150 RUs of biotinylated pMHC immobilised onto a CM5 amine chip

Substance: MAG-IC3 TCR mutant R31W (β chain)
- Kd [1]: 100 nM
- Kd [2]: 6.2 nM

Substance: MAG-IC3 TCR F51W
- other: t1/2 [3]: 20 min
- Kd [4]: 172 nM
- other: t1/2 [4]: 1.5 min

Substance: MAG-IC3 TCR F51T
- Kd [3]: 3.2 nM
- other: t1/2 [3]: 66 min

Substance: MAG-IC3 TCR N97E
- other: t1/2 [3]: 14 min
- Kd [4]: 743 nM

Substance: MAG-IC3 TCR N97D
- Kd [4]: 916 nM

Substance: MAG-IC3 TCR mutant N97Q (β chain)
- Kd [1]: 601 nM

Substance: MAG-IC3 TCR mutant F51W (β chain)
- Kd [2]: 8.4 nM

Substance: MAG-IC3 TCR mutant F51T (β chain)
- Kd [1]: 97.6 nM

Substance: MAG-IC3 TCR mutant N97D (β chain)
- Kd [2]: 99.3 nM

Substance: MAG-IC3 TCR N97Q
- Kd [3]: 59 nM

Substance: MAG-IC3 TCR mutant N97E (β chain)
- Kd [2]: 35 nM

Substance: MAG-IC3 TCR R31L
- Kd [3]: 13.4 nM
- Kd [4]: 93 nM
